Assay results published in IntAct's records for PubMed 25910212.

B1: Meiotic recombination protein DMC1/LIM15 homolog (Homo sapiens), Q14565 (parent)
chain: MKEDQVVAEEPGFQDEEESLFQDIDLLQKHGINVADIKKLKSVGICTIKGIQMTTRRALCNVKGLSEAKVDKIKEAANKLIEPGFLTAFEYSEKRKMVFHITTGSQEFDKLLGGGIESMAITEAFGEFRTGKTQLSHTLCVTAQLPGAGGYPGGKIIFIDTENTFRPDRLRDIADRFNVDHDAVLDNVLYARAYTSEHQMELLDYVAAKFHEEAGIFKLLIIDSIMALFRVDFSGRGELAERQQKLAQMLSRLQKISEEYNVAVFVTNQMTADPGATMTFQADPKKPIGGHILAHASTTRISLRKGRGELRIAKIYDSPEMPENEATFAITAGGIGDAKE
B2: U4/U6 small nuclear ribonucleoprotein Prp31 (Homo sapiens), Q8WWY3 (parent)
chain: MSLADELLADLEEAAEEEEGGSYGEEEEEPAIEDVQEETQLDLSGDSVKTIAKLWDSKMFAEIMMKIEEYISKQAKASEVMGPVEAAPEYRVIVDANNLTVEIENELNIIHKFIRDKYSKRFPELESLVPNALDYIRTVKELGNSLDKCKNNENLQQILTNATIMVVSVTASTTQGQQLSEEELERLEEACDMALELNASKHRIYEYVESRMSFIAPNLSIIIGASTAAKIMGVAGGLTNLSKMPACNIMLLGAQRKTLSGFSSTSVLPHTGYIYHSDIVQSLPPDLRRKAARLVAAKCTLAARVDSFHESTEGKVGYELKDEIERKFDKWQEPPPVKQVKPLPAPLDGQRKKRGGRRYRKMKERLGLTEIRKQANRMSFGEIEEDAYQEDLGFSLGHLGKSGSGRVRQTQVNEATKARISKTLQRTLQKQSVVYGGKSTIRDRSSGTASSVAFTPLQGLEIVNPQAAEKKVAEANQKYFSSMAEFLKVKGEKSGLMST
partner: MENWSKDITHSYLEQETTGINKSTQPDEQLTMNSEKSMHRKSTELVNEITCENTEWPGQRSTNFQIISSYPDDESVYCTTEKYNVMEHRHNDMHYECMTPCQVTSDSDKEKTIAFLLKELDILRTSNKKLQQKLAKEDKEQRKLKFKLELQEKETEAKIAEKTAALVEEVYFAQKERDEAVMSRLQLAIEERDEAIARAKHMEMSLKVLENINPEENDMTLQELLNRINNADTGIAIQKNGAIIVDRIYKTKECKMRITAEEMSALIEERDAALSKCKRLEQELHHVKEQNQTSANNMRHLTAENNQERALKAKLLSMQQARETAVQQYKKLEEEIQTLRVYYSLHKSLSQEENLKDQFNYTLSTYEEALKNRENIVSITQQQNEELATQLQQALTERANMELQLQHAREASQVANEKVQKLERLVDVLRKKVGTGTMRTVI
B3: Adiponectin (Homo sapiens), Q15848 (parent)
chain: MLLLGAVLLLLALPGHDQETTTQGPGVLLPLPKGACTGWMAGIPGHPGHNGAPGRDGRDGTPGEKGEKGDPGLIGPKGDIGETGVPGAEGPRGFPGIQGRKGEPGEGAYVYRSAFSVGLETYVTIPNMPIRFTKIFYNQQNHYDGSTGKFHCNIPGLYYFAYHITVYMKDVKVSLFKKDKAMLFTYDQYQENNVDQASGSVLLHLEVGDQVWLQVYGEGERNGLYADNDNDSTFTGFLLYHDTN
partner: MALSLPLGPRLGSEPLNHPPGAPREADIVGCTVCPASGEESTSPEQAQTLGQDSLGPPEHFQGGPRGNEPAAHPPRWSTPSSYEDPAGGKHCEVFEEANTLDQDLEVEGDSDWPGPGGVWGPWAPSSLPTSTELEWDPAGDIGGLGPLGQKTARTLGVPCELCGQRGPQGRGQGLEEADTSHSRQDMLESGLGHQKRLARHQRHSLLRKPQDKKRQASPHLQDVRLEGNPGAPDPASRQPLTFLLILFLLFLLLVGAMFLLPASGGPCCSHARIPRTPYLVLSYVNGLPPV
B4: U4/U6 small nuclear ribonucleoprotein Prp31 (Homo sapiens), Q8WWY3 (parent)
chain: B2 chain
partner: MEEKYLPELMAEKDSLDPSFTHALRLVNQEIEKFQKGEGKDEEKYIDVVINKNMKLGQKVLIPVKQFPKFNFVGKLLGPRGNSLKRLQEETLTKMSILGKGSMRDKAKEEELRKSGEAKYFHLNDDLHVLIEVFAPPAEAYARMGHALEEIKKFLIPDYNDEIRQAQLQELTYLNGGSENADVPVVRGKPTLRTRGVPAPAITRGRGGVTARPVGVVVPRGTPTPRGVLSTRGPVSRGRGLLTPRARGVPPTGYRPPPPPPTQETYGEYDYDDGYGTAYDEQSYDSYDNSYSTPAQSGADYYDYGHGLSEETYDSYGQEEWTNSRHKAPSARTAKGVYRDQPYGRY
B5: U4/U6 small nuclear ribonucleoprotein Prp31 (Homo sapiens), Q8WWY3 (parent)
chain: B2 chain
partner: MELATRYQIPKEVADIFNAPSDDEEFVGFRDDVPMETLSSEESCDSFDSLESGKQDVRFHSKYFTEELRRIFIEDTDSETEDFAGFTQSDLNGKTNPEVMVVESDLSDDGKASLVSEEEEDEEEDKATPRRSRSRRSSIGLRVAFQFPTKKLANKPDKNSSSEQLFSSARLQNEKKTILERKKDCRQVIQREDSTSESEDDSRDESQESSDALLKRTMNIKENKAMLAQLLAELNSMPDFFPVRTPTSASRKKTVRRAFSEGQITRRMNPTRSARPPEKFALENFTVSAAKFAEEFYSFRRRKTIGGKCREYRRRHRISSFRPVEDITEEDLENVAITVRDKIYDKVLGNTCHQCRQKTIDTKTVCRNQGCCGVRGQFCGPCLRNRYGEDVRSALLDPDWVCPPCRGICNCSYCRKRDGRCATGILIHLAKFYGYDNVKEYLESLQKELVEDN
B6: U4/U6 small nuclear ribonucleoprotein Prp3 (Homo sapiens), O43395 (parent)
chain: MALSKRELDELKPWIEKTVKRVLGFSEPTVVTAALNCVGKGMDKKKAADHLKPFLDDSTLRFVDKLFEAVEEGRSSRHSKSSSDRSRKRELKEVFGDDSEISKESSGVKKRRIPRFEEVEEEPEVIPGPPSESPGMLTKLQIKQMMEAATRQIEERKKQLSFISPPTPQPKTPSSSQPERLPIGNTIQPSQAATFMNDAIEKARKAAELQARIQAQLALKPGLIGNANMVGLANLHAMGIAPPKVELKDQTKPTPLILDEQGRTVDATGKEIELTHRMPTLKANIRAVKREQFKQQLKEKPSEDMESNTFFDPRVSIAPSQRQRRTFKFHDKGKFEKIAQRLRTKAQLEKLQAEISQAARKTGIHTSTRLALIAPKKELKEGDIPEIEWWDSYIIPNGFDLTEENPKREDYFGITNLVEHPAQLNPPVDNDTPVTLGVYLTKKEQKKLRRQTRREAQKELQEKVRLGLMPPPEPKVRISNLMRVLGTEAVQDPTKVEAHVRAQMAKRQKAHEEANAARKLTAEQRKVKKIKKLKEDISQGVHISVYRVRNLSNPAKKFKIEANAGQLYLTGVVVLHKDVNVVVVEGGPKAQKKFKRLMLHRIKWDEQTSNTKGDDDEESDEEAVKKTNKCVLVWEGTAKDRSFGEMKFKQCPTENMAREHFKKHGAEHYWDLALSESVLESTD

Variants of: B1
Details: with psa3_human PSMA3, P25788
Chain of psa3_human PSMA3, P25788 (P25788 whole entry): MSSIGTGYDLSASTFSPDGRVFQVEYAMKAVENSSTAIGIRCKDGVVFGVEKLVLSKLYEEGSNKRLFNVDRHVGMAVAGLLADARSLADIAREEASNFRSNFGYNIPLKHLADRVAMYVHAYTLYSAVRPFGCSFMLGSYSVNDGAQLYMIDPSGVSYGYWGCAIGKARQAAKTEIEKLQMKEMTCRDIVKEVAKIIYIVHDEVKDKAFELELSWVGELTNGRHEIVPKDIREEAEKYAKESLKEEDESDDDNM

**Q.** Which “effect of a mutation on the interaction” value does the source give for M200V here?
**A.** Its value is “disrupting interaction strength”.

Variants of: B1
Details: with sdcb1_human SDCBP

**Q.** For M200V, which “effect of a mutation on the interaction” value is on record?
**A.** Its value is “disrupting interaction strength”.

Variants of: B2
Details: with mipo1_human MIPOL1, Q8TD10

**Q.** With L107V as the variant, how does the “effect of a mutation on the interaction” value read?
**A.** The value was “with no effect”.

Variants of: B3
Details: with SYNE4, Q8N205-2

**Q.** How did the “effect of a mutation on the interaction” value turn out when Y111H was run?
**A.** Its value is “with no effect”.

**Q.** How did the “effect of a mutation on the interaction” value turn out when I164T was run?
**A.** Its value is “with no effect”.

Variants of: B4
Details: with khdr3_human KHDRBS3, O75525

**Q.** How did the “effect of a mutation on the interaction” value turn out when L107V was run?
**A.** Its value is “with no effect”.

Variants of: B5
Details: with CDCA7L

**Q.** How did the “effect of a mutation on the interaction” value turn out when L107V was run?
**A.** The value was “with no effect”.

Variants of: B6
Details: with psmd3_human PSMD3, O43242
Chain of psmd3_human PSMD3, O43242 (O43242 whole entry): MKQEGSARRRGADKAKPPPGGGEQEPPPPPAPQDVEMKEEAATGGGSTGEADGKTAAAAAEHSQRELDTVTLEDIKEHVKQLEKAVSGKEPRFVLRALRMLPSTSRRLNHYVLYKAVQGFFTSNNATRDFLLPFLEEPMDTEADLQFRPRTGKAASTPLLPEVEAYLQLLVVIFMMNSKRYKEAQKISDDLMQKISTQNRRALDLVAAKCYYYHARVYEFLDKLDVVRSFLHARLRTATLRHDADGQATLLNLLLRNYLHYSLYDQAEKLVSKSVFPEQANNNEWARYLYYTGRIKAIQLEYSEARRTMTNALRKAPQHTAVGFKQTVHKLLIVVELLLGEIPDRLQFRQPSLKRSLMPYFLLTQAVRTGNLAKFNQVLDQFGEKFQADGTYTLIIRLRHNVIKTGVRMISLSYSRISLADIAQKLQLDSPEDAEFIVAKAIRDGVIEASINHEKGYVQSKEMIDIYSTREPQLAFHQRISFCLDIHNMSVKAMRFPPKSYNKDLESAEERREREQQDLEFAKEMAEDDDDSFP

**Q.** For A489D, which “effect of a mutation on the interaction” value is on record?
**A.** Its value is “disrupting interaction strength”.

**Q.** How did the “effect of a mutation on the interaction” value turn out when P493S was run?
**A.** Its value is “disrupting interaction strength”.

Variants of: B6
Details: with fam9b_human FAM9B

**Q.** For A489D, which “effect of a mutation on the interaction” value is on record?
**A.** The value was “with no effect”.

**Q.** How did the “effect of a mutation on the interaction” value turn out when P493S was run?
**A.** Its value is “with no effect”.
